Data taken from article PMC6508567.

Experiments:
[1] = target: serpin Z4 (barley (Hordeum vulgare) cv. Harrington) (UniProt P06293); test: MST; serpin Z4 labelled with an NHS-ester fluorescent dye (70 nM), unlabelled β-amylase from 16 μM to 0.5 nM; PBS with 0.1% Tween-20; Monolith NT.115; three replicates combined
[2] = target: serpin Z4 (barley (Hordeum vulgare) cv. Harrington) (UniProt P06293); test: SPR; serpin Z4 immobilised by amine coupling on a CM5 chip, β-amylase injected at 2, 0.9, 0.4, 0.2 and 0.1 μM; PBS; Biacore T200

Sequence of serpin Z4 (barley (Hordeum vulgare) cv. Harrington) (P06293 whole entry): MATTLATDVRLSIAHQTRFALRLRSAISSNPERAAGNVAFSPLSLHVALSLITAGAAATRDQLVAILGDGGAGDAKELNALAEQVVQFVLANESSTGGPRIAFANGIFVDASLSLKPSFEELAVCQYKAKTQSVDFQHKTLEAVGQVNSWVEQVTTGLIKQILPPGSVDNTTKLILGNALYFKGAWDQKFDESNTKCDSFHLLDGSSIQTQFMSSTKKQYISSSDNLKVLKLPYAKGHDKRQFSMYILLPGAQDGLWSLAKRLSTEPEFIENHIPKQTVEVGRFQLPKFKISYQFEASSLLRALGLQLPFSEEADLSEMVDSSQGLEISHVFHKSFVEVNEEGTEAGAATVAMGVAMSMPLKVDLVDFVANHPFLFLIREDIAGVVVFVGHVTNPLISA

Kd [1]: 100 nM
Kd [2]: 316 nM
Substance: β-amylase WT (from UniProt P16098 1-535) (enzyme)
